Measured values: patent publication US11998613B2, “Antibody-drug conjugates containing an anti-mesothelin antibody and uses thereof” (DEVELOPMENT CENTER FOR BIOTECHNOLOGY, priority 2020, dated 2024)

What was measured:
[1] = tested on: Ovarian carcinoma cell line OVCAR-3 (MSLN+); assay: In vitro cytotoxicity, CellTiter-Glo luminescent cell viability assay, OVCAR-3; type: cell-based, human; settings: OVCAR-3, 72 hours treatment; read-out: Relative IC50 (nM of toxic payload/ADCs)
[2] = tested on: KLM-1 human pancreatic cancer xenograft; assay: KLM-1 xenograft model (Example 45); settings: 15 mg/kg IV once weekly for 3 weeks
Method: Formulations respectively comprising test article DCBPR2002-4(DBCO-vc-MMAE)(15 mg/kg), test article DCBPR2002-4(DBCO-vc-seco-DUBA)(15 mg/kg), test article DCBPR2002-4(DBCO-s-DM1) (15 mg/kg), test article DCBPR2002-2(DBCO-vc-MMAE)-2(DBCO-vc-seco-DUBA) (15 mg/kg), test article DCBPR2002-2(DBCO-vc-MMAE)-2(DBCO-s-DM1) (15 mg/kg), test article DCBPR2002-2(DBCO-vc-seco-DUBA)-2(DBCO-s-DM1) (15 mg/kg), and a corresponding vehicle were formulated by diluting the stock with a 25 mM sodium citrate buffer (pH6.5). Each of the formulations was administered intravenously (IV) once weekly for three weeks.
The KLM-1 cells were maintained in vitro as a monolayer culture in RPMI-1640 medium supplemented with 10% fetal bovine serum at 37° C. in an atmosphere of 5% CO2 in air. The tumor cells were routinely sub-cultured twice weekly by trypsin-EDTA treatment. The cells growing in an exponential growth phase were harvested and counted for tumor inoculation.
Male NOD SCID mice at age of 6-7 weeks were purchased from BioLasco Taiwan Co., LTD. and quarantined for one week. Five mice were housed in each cage. All animals were hosted in the animal facility with a 12-h light/12-h dark cycle at 19-25° C. Animals had free access to rodent pellet foods and water ad libitum.
KLM-1 cells were subcutaneously (SC) implanted (4×10^6 cells in 1:1 PBS/matrigel mixture at 0.1 mL per mouse) into the right flank of male NOD SCID mice. When the average tumor volume had reached 300 mm^3, the mice were randomly divided into 7 groups (N=6 per group). Each of the vehicle, DCBPR2002-4(DBCO-vc-MMAE), DCBPR2002-4(DBCO-vc-seco-DUBA), DCBPR2002-4(DBCO-s-DM1), DCBPR2002-2(DBCO-vc-MMAE)-2(DBCO-vc-seco-DUBA), DCBPR2002-2(DBCO-vc-MMAE)-2(DBCO-s-DM1), DCBPR2002-2(DBCO-vc-seco-DUBA)-2(DBCO-s-DM1) was intravenously administered as 15 mg/kg once weekly for 3 weeks.
The tumor volumes, body weights, mortality, and signs of overt toxicity were monitored and recorded three times weekly for 28 days. Tumor volumes were measured three times per week using calipers and calculated according to the formula: Tumor Volume=(w2×l)/2, where w=width and l=length in diameter (mm) of the tumor. […] One-way ANOVA followed by Dunnett's test was applied for comparison between the vehicle and test article-treated groups. Differences are considered significant at *P<0.05. Animals were weighed three times weekly until the completion of the study.

[3] = tested on: OVCAR-3 human ovarian cancer xenograft; assay: OVCAR-3 xenograft model (Example 47); type: in vivo, female NOD SCID mice; settings: for tumor growth / anti-tumor activity: TGI≥58% considered significant
Method: (§1) Five mice were housed in each cage.
OVCAR-3 cells were subcutaneously (SC) implanted (1×10^7 cells in 1:1 PBS/matrigel mixture at 0.2 mL per mouse) into the right flank of female NOD SCID mice. […] Each of the vehicle, DCBPR2002-4(DBCO-vc-MMAE) (5 and 15 mg/kg), and DCBPR2002-TM (15 mg/kg) was intravenously administered once weekly for 3 weeks.
(§2) Differences are considered significant at *P<0.05.

[4] = In vivo PK in mice, MSD ECL total and conjugated antibody assays; set-up: species or system BALB/c mice; settings: 3 mg/kg via the tail vein
Method: The mice were administered at a dose level of 3 mg/kg via the tail vein. Blood samples were then obtained at different time points for determining the concentrations of DCBPR2002-4(DBCO-vc-MMAE) in mice by MESO QuickPlex SQ 120 method.

[5] = tested on: KLM-1 human pancreatic cancer xenograft; assay: KLM-1 xenograft model (Example 44); type: in vivo; settings: for tumor growth / anti-tumor activity: TGI≥58% considered significant
Method: Each of the formulations was administered intravenously (IV) to the mice once weekly for three weeks.
as §1
When the average tumor volume had reached 200 mm^3, the mice were randomLy divided into 4 groups (N=6 per group). Each of the vehicle, DCBPR2002-4(DBCO-vc-MMAE) (15 and 30 mg/kg), and naked antibody (DCBPR2002, 30 mg/kg) was intravenously administered once weekly for 3 weeks.
as §2

[6] = tested on: OVCAR-3 human ovarian cancer xenograft; assay: OVCAR-3 xenograft model (Example 48); type: in vivo, female NOD SCID mice; settings: for tumor growth: TGI≥58% considered significant
Method: as §1
OVCAR-3 cells were subcutaneously (SC) implanted (1×10^7 cells in 1:1 PBS/matrigel mixture at 0.2 mL per mouse) into the right flank of female NOD SCID mice. […] Each of the vehicle, and DCBPR2002-4(DBCO-vc-MMAE) (5, 10, and 15 mg/kg) was intravenously administered once weekly for 3 weeks.
as §2

[7] = 5 mg/kg IV once weekly for 3 weeks
[8] = 15 mg/kg IV once weekly for 3 weeks
[9] = 30 mg/kg IV once weekly for 3 weeks
[10] = 10 mg/kg IV once weekly for 3 weeks

B1: DCBPR2002-4(DBCO-vc-MMAE): DCBPR2002-4Az reacted with DBCO-vc-MMAE; trimannosyl-conjugated ADC, DAR 3.89 (conjugate)
VH: QVQLVQSGAEVKKPGASVKVSCKASGYSFTGYTMNWVRQAPGQGLEWMGLITPYNGASSYNQKFRGRVTMTRDTSISTAYMELSRLRSDDTAVYYCARGGYDGRGFDYWGQGTLVTVSS
VL: EIVLTQSPATLSLSPGERATLSCSASSSVSYMHWYQQKPGQAPRLLIYDTSKLASGIPARFSGSGSGTDFTLTISSLEPEDFAVYYCQQWSKHPLTFGQGTKVEIKR
IC50 [1]: 1 nM | body weight changes [2]: No body weight loss was observed | ranking of efficacy potency [2]: DCBPR2002-4(DBCO-vc-seco-DUBA)=DCBPR2002-2(DBCO-vc-MMAE)-2(DBCO-vc-seco-DUBA)=DCBPR2002-2(DBCO-vc-seco-DUBA)-2(DBCO-s-DM1)>DCBPR2002-4(DBCO-vc-MMAE)>DCBPR2002-2(DBCO-vc-MMAE)-2(DBCO-s-DM1)>DCBPR2002-4(DBCO-s-DM1) | body weight changes [3, 7]: No body weight loss was observed | tumor growth / anti-tumor activity [3, 7]: significantly reduced OVCAR-3 tumor growth | body weight changes [3, 8]: No body weight loss was observed | tumor growth / anti-tumor activity [3, 8]: significantly reduced OVCAR-3 tumor growth | AUC(0−last) ([4]; Conjugated antibody): 2264 ng·h/mL | C0 ([4]; Conjugated antibody): 275 ng/mL | MRT ([4]; Conjugated antibody): 23.4 h | Vss ([4]; Conjugated antibody): 0.155 L/kg | AUC(0−last) ([4]; Total antibody): 25963 ng·h/mL | C0 ([4]; Total antibody): 346 ng/mL | MRT ([4]; Total antibody): 299 h | Vss ([4]; Total antibody): 0.129 L/kg | t1/2 ([4]; Total antibody): 220 h | body weight changes [5, 8]: No body weight loss was observed | tumor growth / anti-tumor activity [5, 8]: significantly reduced KLM-1 tumor growth from Day 7 to Day 28 | body weight changes [5, 9]: No body weight loss was observed | tumor growth / anti-tumor activity [5, 9]: significantly reduced KLM-1 tumor growth from Day 7 to Day 28 | body weight changes [6, 7]: No body weight loss was observed | tumor growth [6, 7]: significantly reduced OVCAR-3 tumor growth with a dose-dependent manner | body weight changes [6, 10]: No body weight loss was observed | tumor growth [6, 10]: significantly reduced OVCAR-3 tumor growth with a dose-dependent manner | body weight changes [6, 8]: No body weight loss was observed | tumor growth [6, 8]: significantly reduced OVCAR-3 tumor growth with a dose-dependent manner
